US20110280881A1, “NOVEL ANTI-HSP90 MONOCLONAL ANTIBODY” (RIKEN, priority 2010, published 2011)

Experiments:
[1] = test system: cell surface HSP90; assay: FACS staining of antigen-presenting cells with the 6H8 antibody; type: binding; conditions: DC2.4, mouse BMDC, human immature and mature DC, mouse peritoneal macrophages, J774
Method: (1) 1.1 mg of the biotinylation reagent EZ-Link (registered trademark) Sulfo-NHS-Biotin (21217, Takara Bio Inc.) was dissolved in 250 μl of pure water (concentration 10 mM). 2 of the solution of the biotinylation reagent was added to 100 of an antibody protein (1 mg/ml), and the reaction was allowed to proceed while cooling on ice for 2 hours. After the reaction, the unreacted biotin reagent was removed using Centricon[5k] (Millipore). The reaction product was adjusted to a final concentration of 1 mg/ml and stored at 4° C. (2) DC2.4 not subjected to membrane permeabilization (1×10^6 cells/0.1 ml), along with the biotinylated anti-HSP90 antibody (1 μg/ml), was incubated at 4° C. for 30 minutes. For negative control, DC2.4 was likewise incubated in an antibody-free PBS. (3) After the unreacted antibody was removed, DC2.4 (1×10^6 cells/0.1 ml), along with PE-cy5 streptavidin (eBioscience, 15-4317-82, used at a concentration of 0.5 μg/ml), was incubated at 4° C. for 30 minutes. (4) After the unreacted PE-cy5 streptavidin was removed, the cells were analyzed by FACS (Becton Dickinson). […]

[2] = test system: mouse HSP90α; assay: Epitope mapping by ELISA with biotinylated overlapping peptides; type: binding; conditions: 12-amino-acid overlapping peptides, antibody 1 μg/ml, OD405
Method: Epitope mapping was performed using biotinylated overlapping peptides. The biotinylated overlapping peptides were prepared as described in a publicly known document (J. Immunological Methods 2002; 267:27-35). The epitope mapping was performed using a library of 12-amino-acid-long synthetic peptides each having an overlap of four amino acids.
After an avidin-coated plate was blocked with BSA, the above-described biotinylated overlapping peptides (1.25-3.75 mg/ml) were added. The plate was incubated at room temperature for 2 hours, after which it was washed with PBS/Tween 20 to remove the unreacted biotinylated overlapping peptides. Each anti-HSP90 monoclonal antibody (1 μg/ml) was added, and the plate was incubated at room temperature for 2 hours. The plate was washed with PBS/Tween 20 to remove the unreacted antibody, after which anti-mouse IgG-ALP (BD Pharmingen, used at a 2000-fold dilution) was added, and the plate was incubated at room temperature for 1 hour. The plate was washed with PBS/Tween 20 to remove the unreacted anti-mouse IgG-ALP, after which a pNPP solution (KPL, 1 mg/ml) was added, and the plate was incubated at room temperature for 3 hours to cause color development. After the color development, the plate was subjected to measurement of OD405 nm. […]

[3] = test system: cell surface HSP90 on DC2.4 cells; assay: Internalization of cell surface HSP90 by the 6H8 antibody; type: cell-based
Method: The behavior of the 6H8-HSP90 complex after being recognized by the 6H8 antibody was examined as described below. First, DC2.4 cells were incubated in the presence of biotinylated 6H8 (1 μg/ml) on ice for 30 minutes and washed. Next, the cells were incubated at 37° C. with 5% CO2 for 0, 10, 20, 30, or 60 minutes. After cooling on ice, the cells were stained with PE-Cy5-streptavidin and analyzed by FACS. The results are shown in the left panel of FIG. 4B. Shown in the right panel are bar graphs for the MFI of each group.
Furthermore, immunostaining was performed to compare the behavior of HSP90 with the behaviors of the MHC class 1 molecule H-2K^b and the MHC class II molecule I-A^b. First, DC2.4 cells were incubated in the presence of the biotinylated 6H8 antibody and the FITC-labeled anti-H-2K^b antibody or anti-I-A^b antibody (Pharmingen, the antibody was used at a 100-fold dilution) in the same manner as the above. The cells were stained with PE-Cy5-streptavidin, returned to room temperature and incubated for 20 minutes, and then examined using a confocal microscope. […] It was confirmed that cell surface HSP90 was internalized by the 6H8 antibody.

[4] = test system: OT-I CD8+ T cells; assay: In vivo OT-I CD8+ T cell proliferation by 6H8-OVA after 6H8 antibody given in advance; parameters: species or system mouse; conditions: 6H8 antibody 20 μg in advance, 6H8-OVA (0.3 mg), tail vein, 72 hours
Method: The 6H8 antibody or IgG2a [normal mouse IgG2a (nmIgG2a), 20 μg] was diluted with 200 μl of PBS and administered to B6 mice from the tail vein. As a control, a group of animals that received PBS alone was also prepared.
Subsequently, CFSE-labeled OT-I CD8^+ T cells ([…]) were suspended in 200 μl of RPMI and administered from the tail vein. Concurrently, 6H8-OVA (0.3 mg) diluted with 200 μl of PBS was administered from the tail vein. As a control, a group of animals that received PBS alone was also prepared.
72 hours later, splenocytes were recovered from each recipient mouse, and decay of CFSE intensity were measured using FACS Calibur (BD Biosciences) to confirm the proliferation of transferred cells.

B1: 6H8: anti-HSP90 monoclonal antibody produced by hybridoma FERM BP-11222; epitope … (antibody)
VH: QVQLQQSGPELVKPGASVRISCKASGYTFTSYYIHWVKQRPGQGLEWIGWIYPGNVNTKYNEKFKGKATLTADKSSSTAYMQLSSLTSEDSAVYFCARYGNYPFAYWGQGTLVTVSAAKTTAPSVYPLAPVCGDTTGSSVTLGCLVKGYF
VL: DVVMTQTPLSLPVSLGDQASISCRSSQSLVHSNGNTYLHWYLQKPGQSPKLLIYKVSNRFSGVPDRFSGSGSGTDFTLKISRVEAEDLGVYFCSQSTHVPPTFGGGTKLEIKRADAAPTVSIFPPSSEQLTSGGASVVCFLNNFYPKDINVKWKIDGS
[1]
  recognition of cell surface HSP90 on antigen-presenting cells (FACS): recognized cell surface HSP90 on cells other than human PBMC-derived immature DC
[2]
  epitope region mapped (amino acid numbers): HSP90α713-724
[3]; DC2.4, 20 minutes at room temperature
  internalization of cell surface HSP90 (confocal microscope): internalized
[3]; DC2.4, biotinylated 6H8 1 μg/ml, 37° C.
  time for the 6H8-HSP90 complex to disappear from the cell surface (enter into cells): about 10 minutes
[4]
  effect on promotion of proliferation of CD8+ T cells by 6H8-OVA: enhanced
